Measured values taken from publication PMC10848957.

Target: FakA_M, central zinc finger domain of Streptococcus suis FakA (Streptococcus suis serotype 2, strain 05ZYH33)
Experiment: cross-linking

Substance: FakA_M, central zinc finger domain of Streptococcus suis FakA (domain or fragment)
- stoichiometry N: 2
